Assay results from paper PMC4743925, “Targeting an Essential GTPase Obg for the Development of Broad-Spectrum Antibiotics” (PLoS ONE, 2016).

Substrate: Nc1nc2c(ncn2[C@@H]2O[C@H](COP(=O)(O)OP(=O)(O)OP(=O)(O)O)[C@@H](O)[C@H]2O)c(=O)[nH]1
Experiment: BIOMOL Green (malachite green) phosphate release
Assay type: biochemical, Neisseria gonorrhoeae
Conditions: 5 μM protein, 10-1000 μM GTP, 6 h, 37 °C, pH 8.0, 10 mM MgCl2, 50 mM KCl

B1: ObgGC (Neisseria gonorrhoeae FA 1090) (protein)
chain: MKFIDEAKIEVAAGKGGNGATSFRREKFVPRGGPDGGDGGKGGSVWAEADENTNTLVEYRFVKRYQAKNGEKGHGSDRYGAGADDIVLKMPVGTLIRDLDTDEIVADLTYHGQRVCLAKGGKGGLGNIHFKSSVNRAPKQSTPGEEGETRSLQLELKVLADVGLLGMPNAGKSTLITAVSAARPKIANYPFTTLHPNLGVVRIDENHSFVMADIPGLIEGAAEGAGLGHRFLKHLSRTGLLLHVVDLAPFDETVNPAEEALAIINELRKYDEELYGKPRWLVLNKLDMLDEEEARARTAAFLEAVGWDYPEPDDRFQFDMETPRLFQISALTHQGTQELVHQINQYLAEKKRIEAEKAEAEKAAANVEIIEQQPKTDTGVFKPE
notes: full-length with C-terminal 6xHis tag, expressed in E. coli BL21(DE3), IMAC and size exclusion; tag not reported cut
Protein B1 has a Km of 78.76 µM.
